Read-outs that look alike come from different tables or passages of the source.
Key:
[1] = molecular target: T1, cardiac troponin I (cTnI) (UniProt P19429 2-210); test: direct ELASA
[2] = molecular target: T1, cardiac troponin I (cTnI); test: direct ELASA; remark: listed apart in the source

T1 sequence (P19429 2-210): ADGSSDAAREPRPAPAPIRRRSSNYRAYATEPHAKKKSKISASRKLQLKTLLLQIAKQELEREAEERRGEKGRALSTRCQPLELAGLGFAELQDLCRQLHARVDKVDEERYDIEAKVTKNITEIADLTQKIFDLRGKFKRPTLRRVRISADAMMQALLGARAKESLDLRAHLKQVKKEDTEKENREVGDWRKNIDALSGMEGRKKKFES

CGCATGCCAAACGTTGCCTCATAGTTCCCTCCCCGTGTCC (ssDNA) [Tro6 (5'-thiol C6, HRP conjugate)]: binds [1].

CGTGCAGTACGCCAACCTTTCTCATGCGCTGCCCCTCTTA (ssDNA) [Tro4 (5'-biotin)]: binds [2].

Reference: paper PMC12321301
